Laboratory results reported in patent publication US20100104557A1.

Assays:
[1] = target: His-tagged HM1.24 antigen, residues N49-A163 of the extracellular domain (human) (UniProt Q10589); experiment: Biacore (SPR): His-tagged HM1.24 antigen coupled directly to the chip (NHS chemistry), antibody as analyte; simultaneous (global Langmuir) fitting
[2] = target: His-tagged HM1.24 antigen, residues N49-A163 of the extracellular domain (human) (UniProt Q10589); experiment: Biacore (SPR): antibody on a protein A chip, HM1.24 antigen as analyte; antibody post incubation (pH 9, 37 C, 4 days)
[3] = target: His-tagged HM1.24 antigen, residues N49-A163 of the extracellular domain (human) (UniProt Q10589); experiment: Biacore (SPR): antibody on a protein A chip, HM1.24 antigen as analyte; antibody untreated
[4] = target: His-tagged HM1.24 antigen, residues N49-A163 of the extracellular domain (human) (UniProt Q10589); experiment: Biacore (SPR): His-tagged HM1.24 antigen coupled directly to the chip (NHS chemistry), antibody as analyte; separate kd and ka fitting

Sequence of His-tagged HM1.24 antigen, residues N49-A163 of the extracellular domain (human) (Q10589 49-163): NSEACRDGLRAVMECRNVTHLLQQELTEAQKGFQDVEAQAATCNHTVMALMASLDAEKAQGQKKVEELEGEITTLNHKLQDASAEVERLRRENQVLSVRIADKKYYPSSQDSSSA

Kd [1]: 0.0826 nM
koff [1]: 7.27e-05 s⁻¹
kon [1]: 879000 M⁻¹ s⁻¹
koff [2]: 0.00257 s⁻¹
koff [3]: 0.00287 s⁻¹
Kd [4]: 0.0732 nM
koff [4]: 7.02e-05 s⁻¹
kon [4]: 958000 M⁻¹ s⁻¹
B1: Antibody comprising the HM1.24_H2.2 heavy chain variant and the HM1.24_L4 light chain (antibody, V domains shown)
VH: EVQLVESGGGLVKPGGSLRLSCAASGYTFTPYWMQWVRQAPGKGLEWMGSIFPGSGDTRYSQSFQGQVTISADKSISTAYMELSSLRSEDTAVYYCARGLRRGGYYFDYWGQGTLVTVSS
VL: DIVMTQSPLSLPVTLGQPASISCKASQDVNTAVAWYLQKPGKSPKLLIYSASNRYTGVPDRITGSGSGTDFTLKISRVEAEDVGVYYCQQHYSTPFTFGSGTKLEIKR
